Source: a protein production outcome set (Wang et al. 2014)

Experiment: label from the status in PepcDB records
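Also: failed if final PepcDB status was selected cloned or expressed and not failed if soluble or beyond.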

**Q.** For “MTSGSRWDGIIPHPGILAFAMALYLLGFVLDASGRPLAYGFLTGDMVVHFFTFPGLREQFIDYLLATAFWIFISNITQVTVFIFSLATFYPVLKIFVLAGALLHNLLVGWGVRGLLIYAGTLHLHLEVTGCLLSLQAALVFVRSLLGTIQHRSRGPLVTALRENLAYLIPLIILLFAIAAILEVFWSTWWVYNLTHGPVSWRYFYTHVFSVEL”, which protein production is on record?
**A.** failed

**Q.** For “MSSLALRSPALALALTLGGLLLCGPVQAQQANSANDMVGRMQYRISELERLVQDLTGKVEQSLYENRQLQTKLENAQSDIDFRLNALESAGPAAAAPANSVPSSARPTASAGAGKQGTPAPAEGVLGFPGKTAPAQGAASAARPAAAGALPAGSENDQYNYAFSLLRNADYPAAEQAFKAFLDQHPKGSLAGNAQYWLGETYYVRGDYEQAAVAFMGGYQSHPDSSKGPDNLLKLGLAMANLGKSKEACAAFGRLESQYPKAADAIKRRAKEGMSKLGC”, which protein production is on record?
**A.** failed

**Q.** With “MSEKELELLARIEELERHTWRNSAILRAVAMVAGTAMIGIIVASGVVGGGHGSHWTGPAWNTMWLYGLFAANAVSMFWTTHKD” as the sequence, how does the protein production read?
**A.** failed

**Q.** Which protein production does the source give for “MSLDLSLNNLYSISTVELIQAFANTPASVTSLNLSGNSLGFKNSDELVQILAAIPANVTSLNLSGNFLSYKSSDELVKTLAAIPFTITVLDLGWNDFSSKSSSEFKQAFSNLPASITSLNLRGNDLGIKSSDELIQILAAIPANVNSLNLRGNNLASKNCAELAKFLASIPASVTSLDLSANLLGLKLEHHHHHH” here?
**A.** failed

**Q.** With “MRKIMREIAVYGKGGIGKSTLSANLSAALALAGRKVLQIGCDPKHDSTRLLTHGREMPTVLDYMRVTNPLDYRLEEVLAHGFSGVGCVEAGGPNPGVGCAGRGIISTFEFLDRFRLKERYDTVVYDVLGDVVCGGFAVPIRKEYADTIFIVTSGEFMALYAANNILRGVRNYDNEEKRIAGILYNRRNIEGEDDRVARFAGAVGLSVCAVIPRSDSFTRAERGKMTVMEQGSDKAIMSIFSGLAQALISGCALHEAKPLTDNELEAIVLGSISSTGGPLSGPDSLPASVTEEPSAAGPPPEIGLTDPNRYLSKNILRSEPLHGCAFNGAMSVGAQISDAVILAHSPKSCTHIMYQTISSAGRRTLFERGALLPVSLAPNLESTDMGEAEMIFGGMEKLEEKILELKARQPRAIVVVSACPAGIIGDDIGRTRRFSEPGLPVVTLKTDGNLAGDYLQGMLMAYTSLARQVIRKDVPTLPDTVNIVFEKFIVTNTNDNFQTIGSLLSRLGVRVNCRFLCETTFDSLETFCTAQLNLLAYKDYTGKLLEDFFTREYGSVFLDRAFPVGFAETEDWLRDVAAFFGRPAAAEGIIEEHKELYAREVEALKADLAGKRLMIITYNHELDWILKTALDVGIDIVKIGVFNFSQDEGFRTRLDAAFNVVENYDRGERDQDIAAYKPDILLTNYASSLADEPFVADTIPMCPDVGFHSGLVLARRWARLLKLNLKGEWRQDELLFRQYYAG” as the sequence, how does the protein production read?
**A.** failed

**Q.** For “MAKPVVETPLMRQYFQIKQKHPDAILLFRVGDFYETFSEDAIVASEILGITLTRRANGAAQFVELAGFPHHALDTYLPKLVRAGKRVAICDQLEDPKKTKTLVKRGITELVTPGVSTNDNVLSHKENNFLAAVSCGKEVFGISLLDISTGEFMAGQGNADYVEKLLTNYRPKEILVERSERSRFNDLFHWSGFIFDMEDWAFSSENNRLRVLKHFDLKSLKGFGLEELSMAVTAAGAVLNYLDLTQHHQLQHITSLSRLDENRYVRLDKFTVRSLELLSPMNEGGKSLLDIIDHTITPMGARRIRQWIVFPLKDPARIQARQRVVEFFFRHPEERAIIAEHLTEIGDLERLVTKGAMGRISPREMVQLRVALQALEPIKEVCTHADEENLRTLGGKLELCKELRDKILREVMPDAPAALGRGPVIAHGVDATLDELRALAYSGKDYLIKLQQQEIERTGIPSLKVAYNNVFGYYIEVRNTHKDKVPAEWIRKQTLVSAERYITEELKEYEAKILGAEEKIAALEGQLYALLVAELQRYVAPLQQDSQAVASLDCLLSFAESARRYRFICPVVDESFTIDIKAGRHPVIEQQLPADEPYIANDIYLDTDRQQVIIVTGPNMSGKSALLRQTALISLMAQIGSFVPAESARIGMVDSIFTRVGASDNISMGESTFMVEMQEASNILNNLTPRSLVLFDELGRGTSTYDGISIAWSIVEYIHDNPKAHPRTLFATHYHELNELEGQLDRVHNFNVSAREVDGKMLFLRKLEPGGSAHSFGIQVARLGGMPHHIVQRATDILHRLEQEREKIEEEEPKTKDTKRGPSEKVKNASPTLPRDEKGRSIDGYQLSFFQLDDPVLSQIREEILDLNIDNLTPLEALNKLNDIKRILRGY”, which protein production is on record?
**A.** failed

**Q.** For “MGHHHHHHSHMTLRCLEPSGNGGEGTRSQWGTAGSAEEPSPQAARLAKALRELGQTGWYWGSMTVNEAKEKLKEAPEGTFLIRDSSHSDYLLTISVKTSAGPTNLRIEYQDGKFRLDSIICVKSKLKQFDSVVHLIDYYVQMCKDKRTGPEAPRNGTVHLYLTKPLYTSAPSLQHLCRLTINKCTGAIWGLPLPTRLKDYLEEYKFQV”, which protein production is on record?
**A.** failed

**Q.** Which protein production does the source give for “MRIRLFAFCLLLGGCQSQLPPLPDWQSPEGRDDPQTGRIVELRSGVTLSPQQLVARLAAAPRVIVGEKHDNPDHHAVELWLAQALGEYRAQGSLLLEMLDPGQQPRVDAVRAQLGNGKPVANLEEALDWQKGWDWTQYGPLVSWAVAQPAPLLAANLQRSEIMRIYRERPPLPGTASRRDSVRLPLLAQIRESHCGMLPDDQLPAMLAVQQQRDRRMAERLRDAPRPAMLVAGSFHARRDLGVPVHLRDLGAEKGTQVLMLVEAGQAVTTREADYAWYTPAQPDKDYCAEMKKARLEHHHHHH” here?
**A.** failed

**Q.** With “MNLRLAAALCAALSLCAVLAVPANFPALGGDARLTLAVFALATCAWIGTPIDDTYIALGAGLALTATGVISSDTLFGTLGEDTVWLLICAFVLAAAVARTGLAGRAAAFLVGGARTVRQLVHLTTAALVVTAFAMPATSGRAALALPVFLALAKVLADRKRLVVMLALLFPTVILLSAVATLIGAGAHLITVSVLWEATGDRIGFTQWLLLGLPLAVASSHLAAETVLLTTTRRADRAGPVRITAEEIQRHSESPVTGPWTQAEKRCALLLATVVALWCSEPLHRVSPAVVALIGAVVASSPALGTVRLKDALKTVPWSLLLFMAATMAMGVALADSGAAGWLVSGLPADVAPAVFLGVVVAVSTAAHLVLQSRSARSSVLVPLVIAAAVGAGVNPVAAALASTAAAGFCHTLPASAKPVTLFSDVPGVPTYTPRDLLRLSAVLAPLTALLVLFFAAAVWPLLGVPVTR” as the sequence, how does the protein production read?
**A.** failed

**Q.** Which protein production does the source give for “MKKRIKELTDLLNRYRYDYYTKDAPSVSDSDYDKLYRELVTLEQSYPEYVLQDSPTQQVGGTILKGFEKYRHQYPLFSLQDAFSREELDAFDKRVKAEFPNATYLAELKIDGLSISLSYENGFLQVGATRGDGNIGENITENIKKIKDIPYQLSEPLTITVRGEAYMSRQSFKAINEARQENGETEFANPRNAAAGTLRQLDTSVVAKRQLATFLYQEASPTARNQQNEVLAELADLGFSVNPYYQLTSSMDEIWDFIKTIEAKRDQLAYDIDGVVIKVNSLAMQEELGFTVKAPRWAIAYKFPAEEKEAEILSVDWTVGRTGVVTPTANLTPVQLAGTTVSRATLHNVDYIAEKDIRIGDTVIVYKAGDIIPAVLNVVMSKRNQQEVMLIPKLCPSCGSELVHFEDEVALRCINPLCPSLIQRSLEHFASRDAMNITGLGPAIVEKLFLAGFVHDVADIYQLTKEDFMQLDGIKEKSADKLLAAIEASKSNSAEKLLFGLGIRHIGSKVSRLILEVYGDISALLTAKEEEIARIDGLGSTIAQSLTQYFEQKTAAILVDELKTAGVNMHYSGQKVNSDAALFGLTVVLTGKLNQLNRNEAKDKLEALGAKVTGSVSKKTDLVIAGSDAGSKLEKAKSLGIRIEDEDWLRQL” here?
**A.** failed

**Q.** With “SKDPAFTALLTTQLQVQREIVNKHNELRKAVSPPASNMLKMEWSREVTTNAQRWANKCTLQHSDPEDRKTSTRCGENLYMSSDPTSWSSAIQSWYDEILDFVYGVGPKSPNAVVGHYTQLVWYSTYQVGCGIAYCPNQDSLKYYYVCQYCPAGNNMNRKNTPYQQGTPCAGCPDDCDKGLCTNSCQYQDLLSNCDSLKNTAGCEHELLKEKCKATCLCENKIY” as the sequence, how does the protein production read?
**A.** failed

**Q.** For “VKSKAKKTVDAHSDEYKIRRERNNIAVRKSRDKAKMRNLETQHKVLELTAENERLQKKVEQLSRELSTLRNLFKQLPE”, which protein production is on record?
**A.** not failed

**Q.** With “MAAKKDYYAILGVPRNATQEEIKRAYKRLARQYHPDVNKSPEAEEKFKEINEAYAVLSDPEKRRIYDTYGTTEAPPPPPPGGYDFSGFDVEDFSEFFQELFGPGLFGGFGRRSRKGRDLRAELPLTLEEAFHGGERVVEVAGRRVSVRIPPGVREGSVIRVPGMGGQGNPPGDLLLVVRLLPHPVFRLEGQDLYATLDVPAPIAVVGGKVRAMTLEGPVEVTIPPRTQAGRKLRLRGKGFPGPAGRGDLYLEVRITIPERLTPEEEALWKKLAEAYYARA” as the sequence, how does the protein production read?
**A.** failed
